B1: DEVE→A: MEKK1 mutant with DEVE (amino acids 857-860) substituted with alanines (protein, UniProt P53349 2-1493, looked up, variant D857A E858A V859A E860A)
Mitogen-activated protein …: AAAAGDRASSSGFPGAAAASPEAGGGGGGGGALQGSGAPAAGAAGLLREPGSAGRERADWRRRQLRKVRSVELDQLPEQPLFLAAASPPCPSTSPSPEPADAAAGASRFQPAAGPPPPGAASRCGSHSAELAAARDSGARSPAGAEPPSAAAPSGREMENKETLKGLHKMEDRPEERMIREKLKATCMPAWKHEWLERRNRRGPVVVKPIPIKGDGSEVNNLAAEPQGEGQAGSAAPAPKGRRSPSPGSSPSGRSVKPESPGVRRKRVSPVPFQSGRITPPRRAPSPDGFSPYSPEETSRRVNKVMRARLYLLQQIGPNSFLIGGDSPDNKYRVFIGPQNCSCGRGAFCIHLLFVMLRVFQLEPSDPMLWRKTLKNFEVESLFQKYHSRRSSRIKAPSRNTIQKFVSRMSNSHTLSSSSTSTSSSENSIKDEEEQMCPICLLGMLDEESLTVCEDGCRNKLHHHCMSIWAEECRRNREPLICPLCRSKWRSHDFYSHELSSPVESPASLRAVQQPSSPQQPVAGSQRRNQESSFNLTHFGTQQIPSAYKDLAEPWIQVFGMELVGCLFSRNWNVREMALRRLSHDVSGALLLANGESTGNSGGGSGGSLSAGAASGSSQPSISGDVVEACCSVLSIVCADPVYKVYVAALKTLRAMLVYTPCHSLAERIKLQRLLRPVVDTILVKCADANSRTSQLSISTVLELCKGQAGELAVGREILKAGSIGVGGVDYVLSCILGNQAESNNWQELLGRLCLIDRLLLEFPAEFYPHIVSTDVSQAEPVEIRYKKLLSLLTFALQSIDNSHSMVGKLSRRIYLSSARMVTAVPAVFSKLVTMLNASGSTHFTRMRRRLMAIAAAAAIAEVIQLGVEDTVDGHQDSLQAVAPTSCLENSSLEHTVHREKTGKGLSATRLSASSEDISDRLAGVSVGLPSSTTTEQPKPAVQTKGRPHSQCLNSSPLSHAQLMFPAPSAPCSSAPSVPDISKHRPQAFVPCKIPSASPQTQRKFSLQFQRNCSEHRDSDQLSPVFTQSRPPPSSNIHRPKPSRPVPGSTSKLGDATKSSMTLDLGSASRCDDSFGGGGNSGNAVIPSDETVFTPVEDKCRLDVNTELNSSIEDLLEASMPSSDTTVTFKSEVAVLSPEKAENDDTYKDDVNHNQKCKEKMEAEEEEALAIAMAMSASQDALPIVPQLQVENGEDIIIIQQDTPETLPGHTKAKQPYREDAEWLKGQQIGLGAFSSCYQAQDVGTGTLMAVKQVTYVRNTSSEQEEVVEALREEIRMMGHLNHPNIIRMLGATCEKSNYNLFIEWMAGGSVAHLLSKYGAFKESVVINYTEQLLRGLSYLHENQIIHRDVKGANLLIDSTGQRLRIADFGAAARLASKGTGAGEFQGQLLGTIAFMAPEVLRGQQYGRSCDVWSVGCAIIEMACAKPPWNAEKHSNHLALIFKIASATTAPSIPSHLSPGLRDVAVRCLELQPQDRPPSRELLKHPVFRTTW
B2: JNK2-APF: inhibitory mutant of JNK2 (protein, UniProt P45984 1-424, looked up, variant T183A Y185F)
Mitogen-activated protein …: MSDSKCDSQFYSVQVADSTFTVLKRYQQLKPIGSGAQGIVCAAFDTVLGINVAVKKLSRPFQNQTHAKRAYRELVLLKCVNHKNIISLLNVFTPQKTLEEFQDVYLVMELMDANLCQVIHMELDHERMSYLLYQMLCGIKHLHSAGIIHRDLKPSNIVVKSDCTLKILDFGLARTACTNFMMAPFVVTRYYRAPEVILGMGYKENVDIWSVGCIMGELVKGCVIFQGTDHIDQWNKVIEQLGTPSAEFMKKLQPTVRNYVENRPKYPGIKFEELFPDWIFPSESERDKIKTSQARDLLSKMLVIDPDKRISVDEALRHPYITVWYDPAEAEAPPPQIYDAQLEEREHAIEEWKELIYKEVMDWEERSKNGVVKDQPSDAAVSSNATPSQSSSINDISSMSTEQTLASDTDSSLDASTGPLEGCR
B3: JNK1-APF: inhibitory mutant of JNK1 (protein, UniProt P45983 1-427, looked up, variant T183A Y185F)
Mitogen-activated protein …: MSRSKRDNNFYSVEIGDSTFTVLKRYQNLKPIGSGAQGIVCAAYDAILERNVAIKKLSRPFQNQTHAKRAYRELVLMKCVNHKNIIGLLNVFTPQKSLEEFQDVYIVMELMDANLCQVIQMELDHERMSYLLYQMLCGIKHLHSAGIIHRDLKPSNIVVKSDCTLKILDFGLARTAGTSFMMAPFVVTRYYRAPEVILGMGYKENVDLWSVGCIMGEMVCHKILFPGRDYIDQWNKVIEQLGTPCPEFMKKLQPTVRTYVENRPKYAGYSFEKLFPDVLFPADSEHNKLKASQARDLLSKMLVIDASKRISVDEALQHPYINVWYDPSEAEAPPPKIPDKQLDEREHTIEEWKELIYKEVMDLEERTKNGVIRGQPSPLGAAVINGSQHPSSSSSVNDVSSMSTDPTLASDTDSSLEAAAGPLGCCR

Experiments:
Type in all cases: cell-based, Human
MEKK1 = assay: Immunoblot of cleavage fragments of transfected HA-tagged MEKK1 in HEK293 cells; settings: for effect on proteolysis of MEKK1: co-expression with MEKK1
Text: The full length cDNA encoding mouse MEKK1 was modified by addition of the HA-tag sequence ([…]) (SEQ ID NO: 12) at its NH2-terminus and inserted into the expression plasmid pCEP4 (Invitrogen), resulting in plasmid MEKK1.cp4. The MEKK1 sequences DTVD (amino acids 871-874) and DEVE (amino acids 857-860) in MEKK1.cp4 were substituted with alanines using a PCR strategy. The resulting plasmids were named DTVD_A.cp4 and DEVE_A.cp4. The cDNAs for CrmA (Pickup et al., 1986), p35 (Cartier et al., 1994), JNK1-APF (Dérijard et al., 1994) and JNK2-APF (Kallunki et al., 1994) were subcloned in pCEP4 in which the hygromycin resistance gene had been removed, resulting in plasmids CrmA.cp_, p35.cp_, JNK1_APF.cp and JNK2_APF.cp_. Plasmid pCDNA—3.cp4 is the result of the ligation of pCEP4 and pCDNA-3.
200-400 μg cell lysate protein was subjected to SDS-9% PAGE and transferred to nitrocellulose membranes. Blots were performed exactly as described (Widmann et al., 1995). To detect HA-tagged proteins, the mouse monoclonal antibody 12CA5 (Babco) was used as the primary antibody, followed by a rabbit anti-mouse antibody (Cappel). HRP-conjugated protein A at a 1/5000 dilution (Zymed) and ^125I-protein A at a 1/500 dilution (Dupont NEN) were then used for enhanced chemiluminescence (ECL) detection and for quantification using the phosphorimager. To detect MEKK1, 3 different ploclonal antisera were used as primary antibodies, followed by ECL detection using HRP-protein A (see above). These sera were generated by injecting rabbits with GST proteins fused with different portions of the MEKK1 protein.

c-Jun kinase (JNK) = assay: c-Jun kinase assay, transfected HEK293 cells; settings: for effect on activation of the JNKs by MEKK1: co-expression with MEKK1
Description: (§1) Lysis buffer (70 mM β-glycerophosphate, 1 mM EGTA, 100 μM Na3VO4, 1 mM DTT, 2 mM MgCl2, 0.5% Triton-X100, 20 μg/ml aprotinin) was added to cells 15-24 hours after transfection. Cellular debris was removed by centrifugation at 8,000xg for 5 min. Protein concentration was normalized by Bradford assay using BSA as standard.
c-Jun kinase (JNK) activity was measured using a solid phase kinase assay in which glutathione S-transferase-c-Jun(1-79) (GST-Jun) bound to glutathione-Sepharose 4B beads was used to affinity-purify JNK from cell lysates as described (Gardner and Johnson, 1996; Hibi et al., 1993). Alternatively, JNKI or JNK2 were immunoprecipitated with isoform specific antibodies (Santa Cruz Biotechnology) and GST-Jun used as substrate in an in vitro kinase assay (Hibi et al., 1993). Quantitation of the phosphorylation of GST-Jun was performed with a Phosphorlmager.

HEK293 cells = assay: MEKK1 staining and TdT-mediated dUTP incorporation (DNA fragmentation) in transfected cells; settings: for diminution of apoptotic cells induced by MEKK1 expression: co-expression with MEKK1
Description: Human embryonal kidney 293 cells (HEK293) stably expressing the EBNA-1 protein from Epstein-Barr virus (Invitrogen) were grown in Dulbecco's modified Eagle's medium (DMEM) supplemented with 100 U/ml penicillin/streptomycin and containing 10% bovine calf serum (BCS). The cells were transfected using lipofectamine (Gibco).
Cells were grown on glass coverslips and transfected using lipofectamine. Two days after transfection, the medium was removed and the cells were fixed in 2% paraformaldehyde, 3% sucrose in phosphate buffered saline (PBS) for 10 min at room temperature. Following three washes with PBS, the cells were permeabilized for 10 min with 2% Triton-X100 in PBS. After three PBS washes, the cells were blocked with filtered cultured medium for 15 min. The coverslips were then incubated 1 hour in TdT reaction mix (200 mM potassium cacodylate, 25 mM Tris.HCl, pH 6.6, 250 μg/ml BSA, 5 mM CoCl2, 0.25 U/μl TdT [Boehringer], 10 μM biotin-dUTP [Boehringer]) at 37° C. in a humidifed atmosphere. […] The coverslips were then washed 6× over a 30 min period with PBS and incubated 1 hour at room temperature with a 1/1000 dilution in filtered culture medium of a donkey anti-rabbit, Cy^3-conjugated, antibody (Jackson Immunological) mixed with 5 μg/ml streptavidin conjugated with FITC (Jackson Immunological). The coverslips were washed 6× with PBS and incubated overnight in PBS before being mounted in 20 mg/ml o-phenyldiamine-diHCl (Sigma) in 0.1 M Tris pH 8.5, 90% glycerol. Images were taken using a Leica DMRXA microscope and analyzed with the SlideBook v2.0 software (Intelligent Imaging Innovations, Denver). The subcellular localization of endogenous MEKK1 observed with the anti-COOH-terminal MEKK1 antibody was identical to that observed with a second antibody recognizing the NH2-terminal portion of the MEKK1 protein.

ERK2 = ERK2 immunoprecipitation kinase assay, transfected HEK293 cells; settings: co-expression with MEKK1
Description: as §1
ERK2 was immunoprecipitated as described above for the JNK isoforms using the ERK2 (C-14) antibody (Santa Cruz Biotechnology). The beads were washed twice with 1 ml lysis buffer and twice with 1 ml lysis buffer without Triton-X100. […] The samples were washed thrice for 5 min each in 75 mM phosphoric acid and once for 2 min in acetone, air-dried, and their radioactivity determined in a β counter.

Row | Molecule | MEKK1 cleavage fragments generated (MEKK1; mutants transfected into HEK293 cells) | JNK activation (c-Jun kinase (JNK); expression in HEK293 cells) | DNA fragmentation (HEK293 cells; expression in HEK293 cells) | effect on activation of ERK2 by MEKK1 (ERK2) | effect on proteolysis of MEKK1 (MEKK1) | effect on activation of the JNKs by MEKK1 (c-Jun kinase (JNK)) | diminution of apoptotic cells induced by MEKK1 expression (HEK293 cells) | diminution of apoptotic cells induced by MEKK1 expression (HEK293 cells; listed as JNKI-APF)
1 | B1 | cleaved into fragments A, B, C and D | activated JNK to the same level as wild type MEKK1 | induced DNA fragmentation |  |  |  |  | 
2 | B2 |  |  |  | unaffected | little effect on the proteolysis of the MEKK1 protein | unaffected |  | 
3 | B3 |  |  |  | unaffected | little effect on the proteolysis of the MEKK1 protein | unaffected | no effect | no protective effect

From patent US20020055130A1, “Method and product for regulating apoptosis” (National Jewish Center for Immunology and Respiratory …, priority 1997, published 2002)
